Patent US9389219B2, “Methods for screening inhibitors of tumor associated protein aggregation” (Vrije Universiteit Brussel, priority 2011, dated 2016)

The substances below were run against p53β (p53-aggregating sequence ILTIITL) (Homo sapiens, UniProt P04637) (assay: In vitro peptide-binding assay (PepSpot membrane, biotinylated p53β peptide, streptavidin-HRP)). Conditions: immobilized peptide, p53β self-interaction = 100,00.
Text: In order to identify aggregating peptides that match p53β, the human proteome for peptides that have high homology with the p53β peptide were screened. While p53β is unique to p53, in silico analysis identified 56 additional peptides (Table 2) that have no more than two mismatches with p53β. Subsequently, the ability of the selected peptides to interact with p53β using an in vitro peptide-binding assay was empirically determined. Therefore, the 56 selected peptides were spot-synthesized on a cellulose membrane, which was subsequently incubated with biotinylated p53β peptide (FIG. 17, panel b). After washing, the membrane was treated with streptavidine-HRP to detect p53β binding (FIG. 17, panel c). Consistently, the assay successfully identified control peptides including p53β itself, as well as the equivalent sequences from p63 and p73. […] The sequence identity between p53β and their interacting peptide, however, is 75%. Although the function of the proteins from which these 33 interacting peptides stem is often poorly characterized, some interesting cases can be identified. Along with the previously identified p63 and p73, which are inactivated by mutant p53 in cancer, segments were found belonging to Copine-2 (CPNE2), which is a negative regulator of growth factor signaling,^72 methionine synthase (METH), which has been associated to methionine dependence in tumors,^64 CGRF1, a negative regulator of cell proliferation,^67 and caspase-8 (CASP8), a key element for apoptosis, the inactivation of which is associated to chemoresistance and found in a variety of human cancers.^66
Peptides of selected sequences were spot synthesized on PVDF membrane (PepSpot, JPT). The membranes were blocked by 1% BSA in phosphate-buffered saline for 1 hour at room temperature, and then incubated with biotinylated peptide containing the p53-aggregating sequence for 1 hour. After rinsing with 0.1% TWEEN® 20 in 25 mM MES buffer pH 7.0, membranes were incubated in HRP-labeled Streptavidin (Thermo) and visualized with electrochemical luminescence (ECL) system.

Binding intensity (normalized)	Substance
3,67	CLTIITG (listed as Homo sapiens) [peptide from TRI18_HUMAN]
40,18	DLTIIDL (listed as Homo sapiens) [peptide from MX2_HUMAN]
26,40	FLTIFTL (listed as Homo sapiens) [peptide from PRA10_HUMAN]
8,22	IHAIITL (listed as Homo sapiens) [peptide from LRC40_HUMAN]
9,72	IKTIINL (listed as Homo sapiens) [peptide from PTPC1_HUMAN]
16,85	ILGKITL (listed as Homo sapiens) [peptide from MP2K4_HUMAN]
98,99	ILIIITL (listed as Homo sapiens) [peptide from P73_HUMAN]
92,04	ILIIVTL (listed as Homo sapiens) [peptide from P63_HUMAN]
26,33	ILQIISL (listed as Homo sapiens) [peptide from PK3C3_HUMAN]
79,63	ILSIDTL (listed as Homo sapiens) [peptide from SPEF2_HUMAN]
12,86	ILTEIHL (listed as Homo sapiens) [peptide from RFC5_HUMAN]
14,09	ILTIKEL (listed as Homo sapiens) [peptide from ZN830_HUMAN]
16,14	ILTKPTL (listed as Homo sapiens) [peptide from MYST3_HUMAN]
33,34	ILTKYTL (listed as Homo sapiens) [peptide from NOL11_HUMAN]
9,77	ILTLIEL (listed as Homo sapiens) [peptide from SMG1_HUMAN]
17,31	ILTSGTL (listed as Homo sapiens) [peptide from RTEL1_HUMAN]
6,81	ILVIITR (listed as Homo sapiens) [peptide from LONF2_HUMAN]
7,06	IQTISTL (listed as Homo sapiens) [peptide from SCC4_HUMAN]
30,92	RRPILTIITLEDGS (listed as Homo sapiens) [reference compound]

Continued, substance first:

Substance	Binding intensity (normalized)
ALTFITL (listed as Homo sapiens) [peptide from BN3D2_HUMAN]	6,47
ALVIITL (listed as Homo sapiens) [peptide from CCNI2_HUMAN]	43,37
GLTIPTL (listed as Homo sapiens)	10,86
IEVIITL (listed as Homo sapiens) [peptide from CXL11_HUMAN]	8,54
IKSIITL (listed as Homo sapiens) [peptide from CT132_HUMAN]	4,39
ILCDITL (listed as Homo sapiens) [peptide from KLH32_HUMAN]	7,89
ILDIITS (listed as Homo sapiens) [peptide from ANXA6_HUMAN]	78,87
ILKNITL (listed as Homo sapiens) [peptide from BPA1_HUMAN]	12,10
ILKQITL (listed as Homo sapiens)	19,84
ILLIITD (listed as Homo sapiens) [peptide from CPNE2_HUMAN]	111,13
ILQIITE (listed as Homo sapiens) [peptide from DHX29_HUMAN]	15,64
ILRQITL (listed as Homo sapiens) [peptide from CD2A1_HUMAN]	14,74
ILTDVTL (listed as Homo sapiens)	5,88
ILTFKTL (listed as Homo sapiens) [peptide from DYH3_HUMAN]	6,20
ILTICTK (listed as Homo sapiens)	6,48
ILTIGTG (listed as Homo sapiens)	49,22
ILTIITL (listed as Homo sapiens)	100,00
ILTILCL (listed as Homo sapiens)	4,81
ILTILTE (listed as Homo sapiens) [peptide from CASP8_HUMAN]	11,43

Substance	Binding intensity (normalized)
ILTISSL (listed as Homo sapiens) [peptide from KV122_HUMAN]	23,80
ILTITTP (listed as Homo sapiens) [peptide from CBPC3_HUMAN]	19,59
ILTIVSL (listed as Homo sapiens) [peptide from DHX33_HUMAN]	10,20
ILTKISL (listed as Homo sapiens) [peptide from HEAT1_HUMAN]	8,65
ILTKSTL (listed as Homo sapiens) [peptide from CND2_HUMAN]	17,86
ILTNTTL (listed as Homo sapiens) [peptide from CC132_HUMAN]	76,96
ILTSQTL (listed as Homo sapiens)	2,39
ITTGITL (listed as Homo sapiens) [peptide from CGRF1_HUMAN]	36,69
ITTVITL (listed as Homo sapiens) [peptide from CD041_HUMAN]	5,27
IVTIITA (listed as Homo sapiens)	17,21
IYTGITL (listed as Homo sapiens)	32,12
KLTIITS (listed as Homo sapiens) [peptide from CM031_HUMAN]	17,88
LLTIETL (listed as Homo sapiens)	26,55
LLTIILL (listed as Homo sapiens)	3,95
LLTIINL (listed as Homo sapiens)	1,55
MLTEITL (listed as Homo sapiens)	3,03
TLTISTL (listed as Homo sapiens) [peptide from KV117_HUMAN]	10,18
VLTISTL (listed as Homo sapiens)	6,72
